Experimental data as given in patent US20180002431A1, “FAS AND DRs ARE NOVEL MOLECULAR TARGETS OF SENESCENT CELLS” (BioVentures, LLC, priority 2015, published 2018).

B1: TRAIL: recombinant TNF-related apoptosis-inducing ligand, Cat #310-04, Peprotech (protein, UniProt P50591 1-281, looked up)
Tumor necrosis factor ligand …: MAMMEVQGGPSLGQTCVLIVIFTVLLQSLCVAVTYVYFTNELKQMQDKYSKSGIACFLKEDDSYWDPNDEESMNSPCWQVKWQLRQLVRKMILRTSEETISTVQEKQQNISPLVRERGPQRVAAHITGTRGRSNTLSSPNSKNEKALGRKINSWESSRSGHSFLSNLHLRNGELVIHEKGFYYIYSQTYFRFQEEIKENTKNDKQMVQYIYKYTSYPDPILLMKSARNSCWSKDAEYGLYSIYQGGIFELKENDRIFVSVTNEHLIDMDHEASFFGAFLVG

What was measured:
[1] = test system: senescent WI-38 cells induced by IR (IR-SC); experiment: Viable cell count, senescent WI-38 cells induced by IR; assay type: cell-based, human
Protocol: (§1) FIG. 2A, FIG. 2B, FIG. 2C, FIG. 2D, FIG. 2E, FIG. 2F, FIG. 2G, FIG. 2H, FIG. 2I, FIG. 2J, FIG. 2K, FIG. 2L, FIG. 2M and FIG. 2N depict graphs showing that FasAb and Trail selectively kill senescent cells by induction of apoptosis. (FIG. 2A, FIG. 2B, FIG. 2C, FIG. 2D) Non-senescent cells (NC) and senescent WI-38 cells induced by IR (IR-SC) were incubated with different concentrations of FasAb (Clone CH11, Cat #05-201, Millipore, Mass., USA) or Trail (Cat #310-04, Peprotech, N.J., USA) for 3 days to count number of viable cells. The data presented are means±SD of viable cells as a percent of control without FasAb or Trail treatment from 3 independent experiments. **, p<0.01; ***, p<0.001; and ****, p<0.0001, vs. without FasAb or Trail. (FIG. 2E, FIG. 2F) WI-38 NC and IR-SC were incubated with vehicle (Veh), FasAb (10 ng/ml) or Trail (12.5 ng/ml) for 3 days, and apoptosis in these cells was determined by Annexin V-FITC staining and flow cytometry. […] (FIG. 2G, FIG. 2H) NCs and IR-SCs were incubated with vehicle (Veh), FasAb (10 ng/ml) or Trail (12.5 ng/ml) for 3 days after the cells were preincubated with vehicle (Veh) or 10 μM Q-VD-OPh hydrate (QVD) for 2 hours, and apoptosis in these cells was determined by Annexin V-FITC staining and flow cytometry. […]

[2] = test system: senescent WI-38 cells induced by IR (IR-SC); experiment: Apoptosis by Annexin V-FITC staining and flow cytometry, WI-38 IR-SC; assay type: cell-based, human
Protocol: as §1, with “The data presented are means±SD of viable cells as a percent of control without FasAb or Trail treatment from 3 independent experiments. **, p<0.01; ***, p<0.001; and ****, p<0.0001, vs. without FasAb or Trail.” left out
WI-38 NC and IR-SC were incubated with vehicle (Veh), FasAb (10 ng/ml) or TRAIL (12.5 ng/ml) for 3 days, and apoptosis in these cells was determined by Annexin V-FITC staining and flow cytometry. […]

[3] = test system: senescent IMR90 cells induced by IR (IR-SC); experiment: Viable cell count, senescent IMR90 cells induced by IR; assay type: cell-based; conditions: different concentrations, 3 days (FIG. 2K-2N)

| Molecule | effect of QVD on the viable cell reduction by FasAb and TRAIL ([1]; IR-SC, 10 μM QVD preincubated 2 hours, then FasAb 10 ng/ml or TRAIL 12.5 ng/ml for 3 days (FIG. 2I, 2J)) | effect of QVD on apoptosis induced by FasAb and TRAIL ([2]; 10 μM QVD preincubated 2 hours, then FasAb 10 ng/ml or TRAIL 12.5 ng/ml for 3 days (FIG. 2G, 2H)) | number of viable cells ([1]; WI-38 IR-SC vs NC, different concentrations, 3 days (FIG. 2A-2D)) | apoptosis (Annexin V-FITC+ cells) ([2]; WI-38 IR-SC, FasAb 10 ng/ml or TRAIL 12.5 ng/ml, 3 days, relative to untreated or non-senescent cells (FIG. 2E, 2F)) | number of viable cells (reported as apoptosis induction) [3] |
| --- | --- | --- | --- | --- | --- |
| CC(C)[C@H](NC(=O)c1ccc2ccccc2n1)C(=O)N[C@@H](CC(=O)O)C(=O)COc1c(F)cccc1F [QVD, Q-VD-OPh hydrate, reference compound] | blocks the activity observed with FasAb and TRAIL | blocked the ability of FasAb and TRAIL to induce apoptosis |  |  |  |
| B1 |  |  | significantly reduced the number of viable cells relative to NC | significantly increased | induced apoptosis |
